Reference: patent US20190300590A1 (PROTAGONIST THERAPEUTICS, published 2019)
Bridges are numbered along the chain shown (N, C = ends). Primed or numbered codes have the meaning given here. Where no end group is shown, it is not given here. [ ]: non-standard residue; d: D form. Bip = N[C@@H](Cc1ccc(-c2ccccc2)cc1)C(=O)O; NMeW = CN[C@@H](Cc1c[nH]c2ccccc12)C(=O)O; 1Nal = N[C@@H](Cc1cccc2ccccc12)C(=O)O; NMeH = CN[C@@H](Cc1c[nH]cn1)C(=O)O; NMeE = CN[C@@H](CCC(=O)O)C(=O)O; Aic′ = not defined here; Aib = CC(C)(N)C(=O)O; PEG1 = NCCOCCC(=O)O; AEA = NCCOCC(=O)O

T1: IL23R_huFC (human, UniProt Q5VWK5 24-353)
T1 sequence (looked up): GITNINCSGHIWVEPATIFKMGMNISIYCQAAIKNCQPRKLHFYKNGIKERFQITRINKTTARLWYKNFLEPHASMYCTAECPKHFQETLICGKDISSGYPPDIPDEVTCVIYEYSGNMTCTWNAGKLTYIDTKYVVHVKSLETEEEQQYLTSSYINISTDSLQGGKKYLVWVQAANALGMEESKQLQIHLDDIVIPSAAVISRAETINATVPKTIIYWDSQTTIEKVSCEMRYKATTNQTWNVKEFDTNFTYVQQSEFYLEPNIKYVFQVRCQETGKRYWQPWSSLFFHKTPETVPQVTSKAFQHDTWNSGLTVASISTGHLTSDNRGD

B1: Ac-CADWVCY-[Bip]-HTFG-[AEA]-[(D)Lys]-NH2 (peptide)
peptide: Ac-CADWVCY[Bip]HTFG[AEA][dK]-NH2
modifications: disulfide 1-6
SMILES: CC(=O)N[C@H]1CSSC[C@@H](C(=O)N[C@@H](Cc2ccc(O)cc2)C(=O)N[C@@H](Cc2ccc(-c3ccccc3)cc2)C(=O)N[C@@H](Cc2c[nH]cn2)C(=O)N[C@H](C(=O)N[C@@H](Cc2ccccc2)C(=O)NCC(=O)NCCOCC(=O)N[C@H](CCCCN)C(N)=O)[C@@H](C)O)NC(=O)[C@H](C(C)C)NC(=O)[C@H](Cc2c[nH]c3ccccc23)NC(=O)[C@H](CC(=O)O)NC(=O)[C@H](C)NC1=O
B2: Ac-CADWVCY-[1-Nal]-H-[Aib]-[(D)Phe]-G-NH2 (peptide)
peptide: Ac-CADWVCY[1Nal]H[Aib][dF]G-NH2
modifications: disulfide 1-6
SMILES: CC(=O)N[C@H]1CSSC[C@@H](C(=O)N[C@@H](Cc2ccc(O)cc2)C(=O)N[C@@H](Cc2cccc3ccccc23)C(=O)N[C@@H](Cc2c[nH]cn2)C(=O)NC(C)(C)C(=O)N[C@H](Cc2ccccc2)C(=O)NCC(N)=O)NC(=O)[C@H](C(C)C)NC(=O)[C@H](Cc2c[nH]c3ccccc23)NC(=O)[C@H](CC(=O)O)NC(=O)[C@H](C)NC1=O
B3: Ac-CADWVCY-[1-Nal]-HTF-[Aib]-NH2 (peptide)
peptide: Ac-CADWVCY[1Nal]HTF[Aib]-NH2
modifications: disulfide 1-6
SMILES: CC(=O)N[C@H]1CSSC[C@@H](C(=O)N[C@@H](Cc2ccc(O)cc2)C(=O)N[C@@H](Cc2cccc3ccccc23)C(=O)N[C@@H](Cc2c[nH]cn2)C(=O)N[C@H](C(=O)N[C@@H](Cc2ccccc2)C(=O)NC(C)(C)C(N)=O)[C@@H](C)O)NC(=O)[C@H](C(C)C)NC(=O)[C@H](Cc2c[nH]c3ccccc23)NC(=O)[C@H](CC(=O)O)NC(=O)[C@H](C)NC1=O
B4: Ac-CADWVCY-[1-Nal]-[N-Me-His]-[(D)Ala]-F-[Aib]-NH2 (peptide)
peptide: Ac-CADWVCY[1Nal][NMeH][dA]F[Aib]-NH2
modifications: disulfide 1-6
SMILES: CC(=O)N[C@H]1CSSC[C@@H](C(=O)N[C@@H](Cc2ccc(O)cc2)C(=O)N[C@@H](Cc2cccc3ccccc23)C(=O)N(C)[C@@H](Cc2c[nH]cn2)C(=O)N[C@H](C)C(=O)N[C@@H](Cc2ccccc2)C(=O)NC(C)(C)C(N)=O)NC(=O)[C@H](C(C)C)NC(=O)[C@H](Cc2c[nH]c3ccccc23)NC(=O)[C@H](CC(=O)O)NC(=O)[C@H](C)NC1=O
B5: Ac-CADWVCY-[1-Nal]-H-[Aib]-FG-NH2 (peptide)
peptide: Ac-CADWVCY[1Nal]H[Aib]FG-NH2
modifications: disulfide 1-6
SMILES: CC(=O)N[C@H]1CSSC[C@@H](C(=O)N[C@@H](Cc2ccc(O)cc2)C(=O)N[C@@H](Cc2cccc3ccccc23)C(=O)N[C@@H](Cc2c[nH]cn2)C(=O)NC(C)(C)C(=O)N[C@@H](Cc2ccccc2)C(=O)NCC(N)=O)NC(=O)[C@H](C(C)C)NC(=O)[C@H](Cc2c[nH]c3ccccc23)NC(=O)[C@H](CC(=O)O)NC(=O)[C@H](C)NC1=O
B6: Ac-CADWVCY-[1-Nal]-H-[AEP]-G-NH2 (peptide)
peptide: Ac-CADWVCY[1Nal]H[PEG1]G-NH2
modifications: disulfide 1-6
SMILES: CC(=O)N[C@H]1CSSC[C@@H](C(=O)N[C@@H](Cc2ccc(O)cc2)C(=O)N[C@@H](Cc2cccc3ccccc23)C(=O)N[C@@H](Cc2c[nH]cn2)C(=O)NCCOCCC(=O)NCC(N)=O)NC(=O)[C@H](C(C)C)NC(=O)[C@H](Cc2c[nH]c3ccccc23)NC(=O)[C@H](CC(=O)O)NC(=O)[C@H](C)NC1=O
B7: Ac-CQTWQCYWRENG-[AEA]-[(D)-Lys]-NH2 (peptide)
peptide: Ac-CQTWQCYWRENG[AEA][dK]-NH2
modifications: disulfide 1-6
SMILES: CC(=O)N[C@H]1CSSC[C@@H](C(=O)N[C@@H](Cc2ccc(O)cc2)C(=O)N[C@@H](Cc2c[nH]c3ccccc23)C(=O)N[C@@H](CCCNC(=N)N)C(=O)N[C@@H](CCC(=O)O)C(=O)N[C@@H](CC(N)=O)C(=O)NCC(=O)NCCOCC(=O)N[C@H](CCCCN)C(N)=O)NC(=O)[C@H](CCC(N)=O)NC(=O)[C@H](Cc2c[nH]c3ccccc23)NC(=O)[C@H]([C@@H](C)O)NC(=O)[C@H](CCC(N)=O)NC1=O
B8: Ac-CQTWQCYWRENG-[AEA]-[(D)-Lys]-NH2 (peptide)
peptide: Ac-CQTWQCYWRENG[AEA][dK]-NH2
modifications: disulfide 1-6
SMILES: CC(=O)N[C@H]1CSSC[C@@H](C(=O)N[C@@H](Cc2ccc(O)cc2)C(=O)N[C@@H](Cc2c[nH]c3ccccc23)C(=O)N[C@@H](CCCNC(=N)N)C(=O)N[C@@H](CCC(=O)O)C(=O)N[C@@H](CC(N)=O)C(=O)NCC(=O)NCCOCC(=O)N[C@H](CCCCN)C(N)=O)NC(=O)[C@H](CCC(N)=O)NC(=O)[C@H](Cc2c[nH]c3ccccc23)NC(=O)[C@H]([C@@H](C)O)NC(=O)[C@H](CCC(N)=O)NC1=O
B9: Ac-CQTWQCYWRENG-[AEA]-[(D)Arg]-NH2 (peptide)
peptide: Ac-CQTWQCYWRENG[AEA][dR]-NH2
modifications: disulfide 1-6
SMILES: CC(=O)N[C@H]1CSSC[C@@H](C(=O)N[C@@H](Cc2ccc(O)cc2)C(=O)N[C@@H](Cc2c[nH]c3ccccc23)C(=O)N[C@@H](CCCNC(=N)N)C(=O)N[C@@H](CCC(=O)O)C(=O)N[C@@H](CC(N)=O)C(=O)NCC(=O)NCCOCC(=O)N[C@H](CCCNC(=N)N)C(N)=O)NC(=O)[C@H](CCC(N)=O)NC(=O)[C@H](Cc2c[nH]c3ccccc23)NC(=O)[C@H]([C@@H](C)O)NC(=O)[C@H](CCC(N)=O)NC1=O
B10: Ac-CQTWQCYWRRNG-[AEA]-[(D)-Lys]-NH2 (peptide)
peptide: Ac-CQTWQCYWRRNG[AEA][dK]-NH2
modifications: disulfide 1-6
SMILES: CC(=O)N[C@H]1CSSC[C@@H](C(=O)N[C@@H](Cc2ccc(O)cc2)C(=O)N[C@@H](Cc2c[nH]c3ccccc23)C(=O)N[C@@H](CCCNC(=N)N)C(=O)N[C@@H](CCCNC(=N)N)C(=O)N[C@@H](CC(N)=O)C(=O)NCC(=O)NCCOCC(=O)N[C@H](CCCCN)C(N)=O)NC(=O)[C@H](CCC(N)=O)NC(=O)[C@H](Cc2c[nH]c3ccccc23)NC(=O)[C@H]([C@@H](C)O)NC(=O)[C@H](CCC(N)=O)NC1=O
B11: Ac-CQTWQCYWRKNG-[AEA]-[(D)-Lys]-NH2 (peptide)
peptide: Ac-CQTWQCYWRKNG[AEA][dK]-NH2
modifications: disulfide 1-6
SMILES: CC(=O)N[C@H]1CSSC[C@@H](C(=O)N[C@@H](Cc2ccc(O)cc2)C(=O)N[C@@H](Cc2c[nH]c3ccccc23)C(=O)N[C@@H](CCCNC(=N)N)C(=O)N[C@@H](CCCCN)C(=O)N[C@@H](CC(N)=O)C(=O)NCC(=O)NCCOCC(=O)N[C@H](CCCCN)C(N)=O)NC(=O)[C@H](CCC(N)=O)NC(=O)[C@H](Cc2c[nH]c3ccccc23)NC(=O)[C@H]([C@@H](C)O)NC(=O)[C@H](CCC(N)=O)NC1=O
B12: Ac-CQTWQCYWRENG-[AEA]-[(D)-Lys]-NH2 (peptide)
peptide: Ac-CQTWQCYWRENG[AEA][dK]-NH2
modifications: disulfide 1-6
SMILES: CC(=O)N[C@H]1CSSC[C@@H](C(=O)N[C@@H](Cc2ccc(O)cc2)C(=O)N[C@@H](Cc2c[nH]c3ccccc23)C(=O)N[C@@H](CCCNC(=N)N)C(=O)N[C@@H](CCC(=O)O)C(=O)N[C@@H](CC(N)=O)C(=O)NCC(=O)NCCOCC(=O)N[C@H](CCCCN)C(N)=O)NC(=O)[C@H](CCC(N)=O)NC(=O)[C@H](Cc2c[nH]c3ccccc23)NC(=O)[C@H]([C@@H](C)O)NC(=O)[C@H](CCC(N)=O)NC1=O
B13: Ac-CQTWQCYWRKNG-[AEA]-[(D)-Lys]-NH2 (peptide)
peptide: Ac-CQTWQCYWRKNG[AEA][dK]-NH2
modifications: disulfide 1-6
SMILES: CC(=O)N[C@H]1CSSC[C@@H](C(=O)N[C@@H](Cc2ccc(O)cc2)C(=O)N[C@@H](Cc2c[nH]c3ccccc23)C(=O)N[C@@H](CCCNC(=N)N)C(=O)N[C@@H](CCCCN)C(=O)N[C@@H](CC(N)=O)C(=O)NCC(=O)NCCOCC(=O)N[C@H](CCCCN)C(N)=O)NC(=O)[C@H](CCC(N)=O)NC(=O)[C@H](Cc2c[nH]c3ccccc23)NC(=O)[C@H]([C@@H](C)O)NC(=O)[C@H](CCC(N)=O)NC1=O

The binders below were run against T1, IL23R_huFC (assay: IL23-IL23R competitive ELISA).

Row | IC50 [nM] | Binder
1 | > 1000 | Ac-CADWVCYWHRCGWWGC-NH2 (disulfide (positions not given here)) [Ac-CADWVCYWHRCGWWGC-NH2]
2 | > 1000 | Ac-CQTWQCYW[NMeE]NG[AEA][dK] (disulfide 1-6 (inferred)) [Ac-CQTWQCYW[N-MeGlu]-NG-[AEA]-[(D)-Lys]]
3 | > 1000 | B1
4 | > 1000 | H-CADWVCY[1Nal]HT[dF]-OH (disulfide 1-6 (inferred)) [Hy-CADWVCY-[1-Nal]-HT-[(D)Phe]-OH]
5 | > 1000 | B2
6 | > 1000 | B3
7 | > 1000 | CADWVCYXHTFX ([1-Nal]; [Sarc]; disulfide) [Hy-CADWVCY-[1-Nal]-HTF-[Sarc]-OH]
8 | > 1000 | B4
9 | > 1000 | B5
10 | > 1000 | B6
11 | > 1000 | Ac-CADWVC-NH2 (disulfide 1-6 (inferred)) [Ac-CADWVC-NH2]
12 | > 1000 | CXDWVCYXHTF ([Sarc]; [1-Nal]; disulfide) [Hy-C-[Sarc]-DWVCY-[1-Nal]-HTF-OH]
13 | > 1000 | H-CAD[NMeW]VCY[1Nal]HTF-OH (disulfide 1-6 (inferred)) [Hy-CAD-[N-Me-Trp]-VCY-[1-Nal]-HTF-OH]
14 | > 1000 | Ac-CADWVCY[Aic′]HTFG[AEA][dK]-NH2 (disulfide 1-6) [Ac-CADWVCY-[Aic]-HTFG-[AEA]-[(D)Lys]-NH2]
15 | > 1000 | CADWXCYXHTF ([Sarc]; [1-Nal]; disulfide) [Hy-CADW-[Sarc]-CY-[1-Nal]-HTF-OH]

Target: T1, IL23R_huFC
Test: IL23-IL23R competitive ELISA
Remark: another data set of the same source

Row | IC50 [nM] | Binder
16 | < 500 | Ac-CQDWQCYWRENG[AEA][dK]-NH2 (disulfide 1-6 (inferred)) [Ac-CQDWQCYWRENG-[AEA]-[(D)-Lys]-NH2]
17 | < 500 | B7
18 | < 500 | B8
19 | < 500 | B9
20 | < 500 | B10
21 | < 500 | B11
22 | < 500 | B12
23 | < 500 | B13
